Test results published in paper doi:10.1101/2022.01.26.477835 (bioRxiv, 2022).

Molecular target: His fused LCK (His-LCK) (human, UniProt P06239 1-509)
Experiment: pull-down

His fused LCK (His-LCK), sequence (P06239 whole entry, the tested form may be a part): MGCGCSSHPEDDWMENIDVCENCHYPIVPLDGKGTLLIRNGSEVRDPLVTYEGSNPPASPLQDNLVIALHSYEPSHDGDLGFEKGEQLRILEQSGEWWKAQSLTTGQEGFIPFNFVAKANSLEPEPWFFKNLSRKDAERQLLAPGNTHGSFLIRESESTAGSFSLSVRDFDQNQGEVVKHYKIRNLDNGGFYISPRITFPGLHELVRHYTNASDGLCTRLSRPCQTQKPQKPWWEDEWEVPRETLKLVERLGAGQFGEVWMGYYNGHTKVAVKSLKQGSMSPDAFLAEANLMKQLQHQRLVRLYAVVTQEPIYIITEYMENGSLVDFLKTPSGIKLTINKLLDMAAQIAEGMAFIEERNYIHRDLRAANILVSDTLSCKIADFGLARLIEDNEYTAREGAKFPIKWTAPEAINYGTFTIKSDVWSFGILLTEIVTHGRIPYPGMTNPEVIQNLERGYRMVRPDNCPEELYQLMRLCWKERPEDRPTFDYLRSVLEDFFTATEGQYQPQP

- binding result: binds
B1: GST-tagged C-terminus of TRPM8 (GST-M8C) (domain or fragment, rat, UniProt Q8R455 980-1104, looked up)
chain: GYTVGIVQENNDQVWKFQRYFLVQEYCNRLNIPFPFVVFAYFYMVVKKCFKCCCKEKNTESSACCFRNEDNETLAWEGVMKENYLVKINTKANDNAEEMRHRFRQLDTKLNDLKGLLKEIANKIK
